Test results taken from the supplement of paper PMC10567573.

B1: TRIM43 (parent)
chain: RAQMIRNEYRKLHPVLHKEEKQHL

Variants of: B1
Assay: protein stability index of a GFP-peptide fusion (GPS, HEK-293T) (PSI 1-6); higher = more stable
Settings: c terminus: a fixed tail appended
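Also: lentivirally expressed fusions sorted by FACS into six bins by GFP to DsRed ratio, PSI derived from sequencing read proportions per bin multiplied by bin number.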

Variant	protein stability index
RAQMIRNEYRKLHPVLHKECKQHL	2.57
RAQMIRNEYRKLHPVLHKEAKQHL	2.32
RAQMIRNEYRKLHPVLHKEPKQHL	2.09
RAQMIRNEYRKLHPVLHKEHKQHL	2.63
RAQMIRNEYRKLHPVLHKEMKQHL	2.29
RAQMIRNEYRKLHPVLHKELKQHL	1.83
RAQMKRNEYRKLHPVLHKEEKQHL	3.21
RAQMPRNEYRKLHPVLHKEEKQHL	3.83
RAQMQRNEYRKLHPVLHKEEKQHL	3.89
RAQMCRNEYRKLHPVLHKEEKQHL	2.02
RAQMHRNEYRKLHPVLHKEEKQHL	3.56
RAQMIRNEYRKLHPVVHKEEKQHL	4.07
RAQMIRNEYRKLHPVHHKEEKQHL	3.2
RAQMIRNEYRKLHPVSHKEEKQHL	3.65
RAQMIRNEYRKLHPVTHKEEKQHL	3.57
RAQMIRNEYRKLHPVWHKEEKQHL	2.3
RAQMIRNEYRKLHPVRHKEEKQHL	3.84
RAQMIRNEYRKLHPVFHKEEKQHL	3.04
RAQMIRLEYRKLHPVLHKEEKQHL	3.49
RAQMIRYEYRKLHPVLHKEEKQHL	2.74
RAQMIRDEYRKLHPVLHKEEKQHL	3.35
RAQMIRREYRKLHPVLHKEEKQHL	3.15
RAQMIRIEYRKLHPVLHKEEKQHL	2.57
RAQMIRTEYRKLHPVLHKEEKQHL	3.3

Variant	protein stability index
RAQMIRVEYRKLHPVLHKEEKQHL	2.64
RAQMIRNEYRKLHPVLHKEEKQHW	2.88
RAQMIRNEYRKLHPVLHKEEKQHF	2.36
RAQMIRNEYRKLHPVLHKEEKQHI	3.19
RAQMIRNEYRKLHPVLHKEEKQHM	3.45
RAQMIRNEYRKLHPVLHKEEKQHP	3.5
RAQMIRNEYRKLHPVLHKEEKQHQ	3.84
RAQMIRNEYRKLHPVLHKEEKQHS	3.82
RAQMIRNEYRNLHPVLHKEEKQHL	3.68
RAQMIRNEYRQLHPVLHKEEKQHL	3.51
RAQMIRNEYRSLHPVLHKEEKQHL	2.96
RAQMIRNEYRRLHPVLHKEEKQHL	3.4
RAQMIRNEYRELHPVLHKEEKQHL	4.15
RAQMIRNEYRILHPVLHKEEKQHL	2.94
RAQMIRNEYRCLHPVLHKEEKQHL	2.79
RAQMIRNEYRALHPVLHKEEKQHL	3.14
RAQMIRNEYRPLHPVLHKEEKQHL	4.16
RAQMIRNEYRYLHPVLHKEEKQHL	3.07
RAQMIRNEYRMLHPVLHKEEKQHL	3.35
RAQMIRNEYRKIHPVLHKEEKQHL	3.07
RAQMIRNEYRKQHPVLHKEEKQHL	3.36
RAQMIRNEYRKFHPVLHKEEKQHL	2.94
RAQMIRNEYRKWHPVLHKEEKQHL	2.96
RAQMIRNEYRKCHPVLHKEEKQHL	3.03

Variant	protein stability index
RAQMIRNEYRKEHPVLHKEEKQHL	4.06
RAQMIRNEYRKTHPVLHKEEKQHL	3.85
RAQMIRNEYRKRHPVLHKEEKQHL	3.94
RAQMIRNEYRKMHPVLHKEEKQHL	2.86
RAQMIRNEYRKLHPVLEKEEKQHL	4.14
RAQMIRNEYRKLHPVLMKEEKQHL	2.81
RAQMIRNEYRKLHPVLCKEEKQHL	2.58
WAQMIRNEYRKLHPVLHKEEKQHL	1.92
FAQMIRNEYRKLHPVLHKEEKQHL	1.92
MAQMIRNEYRKLHPVLHKEEKQHL	2.47
KAQMIRNEYRKLHPVLHKEEKQHL	2.93
LAQMIRNEYRKLHPVLHKEEKQHL	2.33
PAQMIRNEYRKLHPVLHKEEKQHL	3.38
YAQMIRNEYRKLHPVLHKEEKQHL	1.77
VAQMIRNEYRKLHPVLHKEEKQHL	3.99
SAQMIRNEYRKLHPVLHKEEKQHL	3.78
RAQMIRNEYRKLHPVLHCEEKQHL	2.7
RAQMIRNEYRKLHPVLHLEEKQHL	2.95
RAQMIRNEYRKLHPVLHREEKQHL	2.55
RAQMIRNEYRKLHPVLHSEEKQHL	3.54
RAQMIRNEYRKLHPVLHHEEKQHL	3.59
RAQMIRNEYRKLHPVLHWEEKQHL	2.44
RAQMIRNEYRKLHPVLHDEEKQHL	3.45
RAQMIRNEYAKLHPVLHKEEKQHL	3.08

Variant	protein stability index
RAQMIRNEYYKLHPVLHKEEKQHL	3.31
RAQMIRNEYVKLHPVLHKEEKQHL	3.73
RAQMIRNEYFKLHPVLHKEEKQHL	3.4
RAQMIRNEYIKLHPVLHKEEKQHL	3.75
RAQMIRNEYSKLHPVLHKEEKQHL	3.71
RAQMIRNEYLKLHPVLHKEEKQHL	3.38
RAQMIRNEYTKLHPVLHKEEKQHL	3.85
RAQMIRNEYGKLHPVLHKEEKQHL	3.26
RAQMIRNHYRKLHPVLHKEEKQHL	2.78
RAQMIRNWYRKLHPVLHKEEKQHL	1.33
RAQMIRNNYRKLHPVLHKEEKQHL	3
RAQMIRNPYRKLHPVLHKEEKQHL	2.72
RAQMIRNAYRKLHPVLHKEEKQHL	2.16
RAQMIRNGYRKLHPVLHKEEKQHL	2.84
RAQMIRNEERKLHPVLHKEEKQHL	3.96
RAQMIRNERRKLHPVLHKEEKQHL	3.84
RAQMIRNEQRKLHPVLHKEEKQHL	4.31
RAQMIRNEIRKLHPVLHKEEKQHL	3.03
RAQMIRNECRKLHPVLHKEEKQHL	3.79
RAQMIRNELRKLHPVLHKEEKQHL	3.25
RAQMIRNEDRKLHPVLHKEEKQHL	4.24
RAQMIRNEVRKLHPVLHKEEKQHL	3.91
RAQMIRNEYRKLHPVLHKEEKDHL	3.65
RAQMIRNEYRKLHPVLHKEEKRHL	3.62

Variant	protein stability index
RAQMIRNEYRKLHPVLHKEEKNHL	3.07
RAQMIRNEYRKLHPVLHKEEKSHL	3.3
RAQMIRNEYRKLHPVLHKEEKGHL	2.34
RAQMIRNEYRKLHPVLHKEEKVHL	2.64
RAQMIRNEYRKLHPVLHKEEKLHL	2.33
RAQMIRNEYRKLHPVLHKEEKEHL	3.82
RAQMIRNEYRKLHPVLHKEEKCHL	2.54
RAQMIRNEYRKLHPVLHKEEKAHL	2.89
RAQMIRNEYRKLHPVLHKEECQHL	3.18
RAQMIRNEYRKLHPVLHKEERQHL	3.46
RAQMIRNEYRKLHPVLHKEEGQHL	2.42
RAQMIRNEYRKLHPVLHKEEMQHL	2.54
RAQMIRNEYRKLHPVLHKEEQQHL	4.17
RAQMIRNEYRKLHPVLHKEEHQHL	3.15
RAQMIRNEYRKLHPVLHKEEYQHL	2.71
RAQMIRNEYRKLHPVLHKEEIQHL	2.59
RAQMIRNEYRKLHPVLHKEETQHL	2.92
RAQMIRNEYRKLHPVLHKEEWQHL	2.51
RAPMIRNEYRKLHPVLHKEEKQHL	3.39
RARMIRNEYRKLHPVLHKEEKQHL	2.81
RAWMIRNEYRKLHPVLHKEEKQHL	2.79
RAIMIRNEYRKLHPVLHKEEKQHL	2.78
RADMIRNEYRKLHPVLHKEEKQHL	3.64
RALMIRNEYRKLHPVLHKEEKQHL	2.41

Variant	protein stability index
RAEMIRNEYRKLHPVLHKEEKQHL	3.48
RAAMIRNEYRKLHPVLHKEEKQHL	2.67
RAQMIRNEYRKLHPVLHKEEKQIL	2.46
RAQMIRNEYRKLHPVLHKEEKQDL	4.45
RAQMIRNEYRKLHPVLHKEEKQEL	3.81
RAQMIRNEYRKLHPVLHKEEKQLL	3.18
RAQMIRNEYRKLHPVLHKEEKQRL	2.94
RAQMIRNEYRKLHPVLHKEEKQTL	3.23
RAQMIRNEYRKLHPVLHKEEKQYL	2.74
RAQMIRNEYRKLHPVLHKEEKQFL	2.58
RAQMIRNEYRKLHPVLHKEEKQGL	3.63
RAQMIRNEYRKLHPVLHKEEKQAL	3.08
RAQMIRNEYRKLHPVLHKEEKQML	3.39
RAQMIRNEYRKLNPVLHKEEKQHL	3.35
RAQMIRNEYRKLGPVLHKEEKQHL	3.2
RAQMIRNEYRKLYPVLHKEEKQHL	2.83
RAQMIRNEYRKLMPVLHKEEKQHL	2.94
RAQMIRNEYRKLRPVLHKEEKQHL	2.69
RAQMIRNEYRKLTPVLHKEEKQHL	3.1
RAQPIRNEYRKLHPVLHKEEKQHL	3.73
RAQVIRNEYRKLHPVLHKEEKQHL	3.39
RAQIIRNEYRKLHPVLHKEEKQHL	2.6
RAQTIRNEYRKLHPVLHKEEKQHL	3.69
RAQDIRNEYRKLHPVLHKEEKQHL	3.53

Variant	protein stability index
RAQWIRNEYRKLHPVLHKEEKQHL	2.44
RAQYIRNEYRKLHPVLHKEEKQHL	2.74
RAQFIRNEYRKLHPVLHKEEKQHL	2.61
RAQMILNEYRKLHPVLHKEEKQHL	2.15
RAQMIVNEYRKLHPVLHKEEKQHL	3.52
RAQMIDNEYRKLHPVLHKEEKQHL	4.3
RAQMINNEYRKLHPVLHKEEKQHL	4.15
RAQMIENEYRKLHPVLHKEEKQHL	3.48
RAQMIYNEYRKLHPVLHKEEKQHL	2.57
RAQMIPNEYRKLHPVLHKEEKQHL	3.57
RAQMIINEYRKLHPVLHKEEKQHL	1.89
RAQMIGNEYRKLHPVLHKEEKQHL	3.96
RAQMIKNEYRKLHPVLHKEEKQHL	3.39
RAQMIQNEYRKLHPVLHKEEKQHL	3.63
RAQMIANEYRKLHPVLHKEEKQHL	3.07
RAQMIRNEYRKLHPVLHKLEKQHL	2.07
RAQMIRNEYRKLHPVLHKDEKQHL	3.02
RAQMIRNEYRKLHPVLHKNEKQHL	2.42
RAQMIRNEYRKLHPVLHKTEKQHL	2.82
RAQMIRNEYRKLHPVLHKCEKQHL	2.71
RAQMIRNEYRKLHPRLHKEEKQHL	3.37
RAQMIRNEYRKLHPHLHKEEKQHL	2.98
RAQMIRNEYRKLHPSLHKEEKQHL	2.94
RAQMIRNEYRKLHPALHKEEKQHL	3.39

Variant	protein stability index
RAQMIRNEYRKLHPGLHKEEKQHL	3.88
RAQMIRNEYRKLHPILHKEEKQHL	3.09
RAQMIRNEYRKLHPQLHKEEKQHL	3.17
RAQMIRNEYRKLHPWLHKEEKQHL	2.5
RAQMIRNEYRKLHPNLHKEEKQHL	3.65
RAQMIRNEYRKLHYVLHKEEKQHL	2.27
RAQMIRNEYRKLHQVLHKEEKQHL	2.51
RAQMIRNEYRKLHAVLHKEEKQHL	2.53
RAQMIRNEYRKLHHVLHKEEKQHL	2.28
RAQMIRNEYRKLHVVLHKEEKQHL	2.59
RAQMIRNEYRKLHKVLHKEEKQHL	2.7
RAQMIRNEYRKLHDVLHKEEKQHL	3.33
RWQMIRNEYRKLHPVLHKEEKQHL	2.27
RIQMIRNEYRKLHPVLHKEEKQHL	2.14
RPQMIRNEYRKLHPVLHKEEKQHL	3.84
RYQMIRNEYRKLHPVLHKEEKQHL	3.13
RFQMIRNEYRKLHPVLHKEEKQHL	1.95
RQQMIRNEYRKLHPVLHKEEKQHL	3.09
RVQMIRNEYRKLHPVLHKEEKQHL	2.78
RCQMIRNEYRKLHPVLHKEEKQHL	3.35
